Experimental findings from paper PMC3443672, “The solution structure of the prototype foamy virus RNase H domain indicates an important role of the basic loop in substrate binding” are described below.

This data set addresses PFV RNase H wt (prototype foamy virus, UniProt P14350 591-751). Nature of the data set: fluorescence anisotropy; 25 nM substrate; Fluorescence anisotropy: 25 nM substrate, excitation 652 nm, emission 673 nm; buffer, salt, pH and temperature not given (as described in ref 5). As to conditions: protein: recombinant; label: DY647 at 5' end of DNA strand; blunt. In general terms: Polarisation of emitted light reports the rotation of a fluorescent probe.

B1: 10/10-mer RNA/5'-DY647-DNA (DNA:RNA)
RNA: GCGACACCUG
DNA: CAGGTGTCGC
What is called Kd is a measure of binding affinity in units of concentration. As for B1, the Kd was 23 ± 3 µM.
